Values quoted from earlier work, collected in US5861377A, “Antistasin type serine protease inhibitors” (Novartis AG, priority 1994, dated 1999).

Columns and labels:
Trypsin = target: T1, Trypsin (Bos taurus, UniProt P00760); conditions: bovine trypsin; data from Dunwiddie et al.
T1 sequence (P00760 24-246): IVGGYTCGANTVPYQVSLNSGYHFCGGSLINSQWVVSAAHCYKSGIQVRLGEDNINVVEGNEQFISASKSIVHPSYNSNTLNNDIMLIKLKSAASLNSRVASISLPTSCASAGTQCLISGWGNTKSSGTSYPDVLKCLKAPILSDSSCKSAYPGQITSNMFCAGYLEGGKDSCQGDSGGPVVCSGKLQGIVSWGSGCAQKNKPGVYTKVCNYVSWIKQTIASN

Factor Xa = Factor Xa (Homo sapiens, UniProt P00742); conditions: data from Dunwiddie et al.
Chain of Factor Xa (P00742 235-488 limits assumed): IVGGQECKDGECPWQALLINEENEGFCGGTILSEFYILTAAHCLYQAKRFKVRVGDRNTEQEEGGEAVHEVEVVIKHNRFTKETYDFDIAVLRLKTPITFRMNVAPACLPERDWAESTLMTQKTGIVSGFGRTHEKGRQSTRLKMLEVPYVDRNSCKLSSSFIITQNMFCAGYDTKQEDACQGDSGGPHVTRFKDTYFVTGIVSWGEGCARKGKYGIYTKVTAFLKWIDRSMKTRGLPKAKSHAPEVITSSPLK
Chain of Factor Xa (P00742 41-179 partner limits assumed): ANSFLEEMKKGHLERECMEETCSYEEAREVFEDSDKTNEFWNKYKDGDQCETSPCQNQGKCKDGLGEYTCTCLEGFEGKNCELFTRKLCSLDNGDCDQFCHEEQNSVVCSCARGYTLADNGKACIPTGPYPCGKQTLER

IC50 (Trypsin): 5 nM
IC50 (Factor Xa): 1 nM
B1: Antistasin: cysteine-rich serine proteinase inhibitor of 119 amino acids from the Mexican leech Haementeria officinalis; factor Xa inhibitor (protein)
chain: EGPFGPGCEEAGCPEGSACNIITDRCTCSGVRCRVHCPHGFQRSRYGCEFCKCRKEPMKATCDISECPEGMMCSRKTNKCDCKIDINCRKTCPNGLKRDKGCEYCECRFKRKLIPRLS
